Assay [1] concerns the target human polyclonal IgG (Gammanorm) (human). As to the kind of experiment: column DBC; ligand 10.8 mg/ml; after 6 x 4 h 0.5 M NaOH.
Assay [2] has the same target. As to the kind of experiment: column DBC; vs reference Zvar4; 0.5 M NaOH.
Assay [3] has the same target. As to the kind of experiment: column DBC, 6 min residence; agarose beads; ligand 10.8 mg/ml.
Assay [4] has the same target. As to the kind of experiment: column DBC; vs reference Zvar4; 1.0 M NaOH.
Assay [5] has the same target. As to the kind of experiment: column DBC, 6 min residence; agarose beads; ligand 9.7 mg/ml.
Assay [6] has the same target. Nature of the assay: column DBC; ligand 9.7 mg/ml; after 6 x 4 h 1.0 M NaOH.
Assay [7] shares this target. As to the kind of experiment: column DBC, 6 min residence; agarose beads; ligand 9.7 mg/ml. The source holds these as a separate data set.
Assay [8] has the same target. Nature of the assay: column DBC; ligand 9.7 mg/ml; after 6 x 4 h 0.5 M NaOH.
Assay [9] shares this target. Nature of the assay: column DBC, 6 min residence; agarose beads; ligand […].
Assay [10] has the same target. Described as above. The source holds these as a separate data set.
Assay [11] has the same target. Nature of the assay: column DBC; ligand 7.2 mg/ml; after 6 x 4 h 0.5 M NaOH.
The target is the same in assay [12]. As to the kind of experiment: column DBC, 6 min residence; agarose beads; ligand 7.2 mg/ml.
For assay [13] the target is unchanged. Nature of the assay: column DBC; ligand […]; after 6 x 4 h 0.5 M NaOH.
Assay [14] has the same target. Nature of the assay: column DBC; ligand […]; after 6 x 4 h 1.0 M NaOH.
For assay [15] the target is unchanged. Nature of the assay: column DBC, 6 min residence; agarose beads; ligand 7.0 mg/ml.
Assay [16] has the same target. As to the kind of experiment: column DBC; ligand 7.0 mg/ml; after 6 x 4 h 0.5 M NaOH.
For assay [17] the target is unchanged. Nature of the assay: SPR; after 96-100 CIP cycles 0.5 M NaOH. (In general: SPR reads the build-up and loss of mass on a sensor chip optically.)
The target is the same in assay [18]. As to the kind of experiment: SPR; vs reference Zvar1; 0.5 M NaOH cycles.
Assay [19] has as its target IgG1 monoclonal antibody (probe molecule). Nature of the assay: SPR (Biacore), ligand on CM5 chip, IgG1 mAb as probe.
Assay [20] addresses human polyclonal IgG (Gammanorm) (human). As to the kind of experiment: SPR; after 100 CIP cycles 1 M NaOH.
Assay [21] shares this target. Nature of the assay: SPR; vs reference Zvar4; 1 M NaOH.
The target is the same in assay [22]. As to the kind of experiment: SPR; after 100 CIP cycles 0.5 M NaOH.
Assay [23] shares this target. As to the kind of experiment: SPR; after 300 CIP cycles 0.5 M NaOH.
Assay [24] shares this target. As to the kind of experiment: SPR; vs reference Zvar4; 0.5 M NaOH.
Assay [25] shares this target. Nature of the assay: SPR; after 200 CIP cycles 0.5 M NaOH.

As for “Zvar(Q9A,N11K,H18K,D37E,A42R)4 with an additional N-terminal cysteine (designed binder)”, in [1], the remaining IgG capacity Qb10 after six 4 h cycles was found to be 52.5 mg/mL and the remaining IgG capacity after six 4 h cycles was found to be 92%. The substance also came in with a capacity retention relative to ref. after six 4 h cycles in assay [2] of 1.3. Besides, in assay [3], the initial IgG capacity Qb10 came to 56.9 mg/mL.
In the case of “Zvar(N11K,H18K,S33K,D37E,A42R,N43A,L44I,K50R,L51Y)4 with an additional N-terminal cysteine (designed binder)”, the capacity retention relative to ref. after six 4 h cycles worked out at 1.44 in assay [4] and 1.53 in [2]. Moreover, the initial IgG capacity Qb10 in assay [5] was determined as 56.3 mg/mL; in [7] it was 62.1 mg/mL. The remaining IgG capacity Qb10 after six 4 h cycles is 48.1 mg/mL in assay [6] and 52 mg/mL in [8]. Also, the figures for the remaining IgG capacity after six 4 h cycles in assay [6] and in [8] were 77% and 92%, respectively.
As for “Zvar(Q9A,N11E,Q40V,A42K,N43A,L44I)4 with an additional N-terminal cysteine (designed binder)”, the capacity retention relative to ref. after six 4 h cycles turned out to be 1.67 in assay [4] and 1.5 in assay [2] (ligand content 7.2 mg/ml). Also, the initial IgG capacity Qb10 in assay [9] was found to be 56.3 mg/mL; in [10], 60.3 mg/mL; in assay [12], 49 mg/mL. Besides, the figures for the remaining IgG capacity Qb10 after six 4 h cycles in assay [11], in assay [13] and in [14] were 44.2 mg/mL, 53.6 mg/mL and 56 mg/mL, respectively. Also, the results for the remaining IgG capacity after six 4 h cycles in [11], in assay [13] and in [14] were 90%, 95% and 93%, respectively.
With “Zvar(Q9A,N11E,N28A,N43A)4 with an additional N-terminal cysteine (designed binder)”, the values for the initial IgG capacity Qb10 in assay [9] and in assay [15] were 50 mg/mL and 49.1 mg/mL, respectively. The substance further registered a capacity retention relative to ref. after six 4 h cycles in assay [2] (ligand content 7.0 mg/ml) of 1.5. Besides, the results for the remaining IgG capacity Qb10 after six 4 h cycles in [13] and in [16] were 46.2 mg/mL and 44.1 mg/mL, respectively. For the same substance, the remaining IgG capacity after six 4 h cycles in [13] is 93%; in [16] it was 90%.
As usually defined, the Kd is the constant that tells how readily two partners part at equilibrium. Lower therefore signals tighter binding. As usually defined, the koff is a measure of how fast the partners let go of each other. The low end stands for slow dissociation, the high end for fast dissociation. One may read the kon as the rate constant with which the complex forms. Lower therefore signals slower complex formation. “Zvar(Q9A,N11E,Q40V,A42K,N43A,L44I)1 (designed binder)” had a capacity after 96-100 cycles in [17] of 66%. The same substance yielded a capacity relative to reference in [18] of 1.4. In [19], the dissociation constant Kd amounted to 1.07 nM, the koff amounted to 0.000437 s⁻¹ and the kon was found to be 410000 M⁻¹ s⁻¹.
In turn, “Zvar(Q9A,N11E,Q40V,A42K,N43E,L44I)4 (designed binder)” had a remaining capacity 100 cycles in [20] of 54%. The substance further gave a capacity relative to ref. 100 cycles in assay [21] of 2. In assay [22], this substance came in with a remaining capacity 100 cycles of 84%. The remaining capacity 300 cycles in assay [23] came out at 48%. Also, in [24], the capacity relative to ref. 100 cycles was 1.25, the capacity relative to ref. 200 cycles was found to be 1.81 and the capacity relative to ref. 300 cycles amounted to 3. The substance also came in with a remaining capacity 200 cycles in assay [25] of 65%.

Values taken from patent US20190119318A1.
